Assay results taken from the supplement of paper PMC10567573.

B1: GLT8D2 (parent)
chain: QEAKLLHWNGRHKPWDFPSVHNDL
B2: PTPN9 (parent)
chain: NKWTVQYNVSPLSWNVAVKFLMAR
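Also: lentivirally expressed fusions sorted by FACS into six bins by GFP to DsRed ratio, PSI derived from sequencing read proportions per bin multiplied by bin number.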

Variants of: B1
Assay: protein stability index of a GFP-peptide fusion (GPS, HEK-293T) (PSI 1-6); higher = more stable
Conditions: c terminus: a fixed tail appended
Work on N22R yielded a protein stability index of 2.35.
Work on N22M yielded a protein stability index of 2.01.
Work on N22G yielded a protein stability index of 2.63.
Work on N22H yielded a protein stability index of 2.47.
In the case of N22C, the protein stability index is reported as 2.11.
N22P gave a protein stability index of 2.57.
Variant N22K has a protein stability index of 2.7.
For N22T, the protein stability index was 2.5.
With N22S the protein stability index was 2.33.
N22V gave a protein stability index of 1.92.
N22A showed a protein stability index of 2.9.
Variant N22Y has a protein stability index of 1.91.
For N22Q, the protein stability index was 2.79.
For N22L, the protein stability index was 2.53.
Work on N22F yielded a protein stability index of 2.08.
For N22W, the protein stability index was 2.08.
With N22D the protein stability index was 3.27.
Work on N22I yielded a protein stability index of 2.06.
With N22E the protein stability index was 3.2.
Variant D23L has a protein stability index of 1.48.
Work on D23N yielded a protein stability index of 1.86.
In the case of D23P, the protein stability index is reported as 2.27.
For D23R, the protein stability index was 1.88.
With D23E the protein stability index was 2.72.
With D23K the protein stability index was 3.01.
D23I gave a protein stability index of 2.27.
D23W gave a protein stability index of 2.48.
With D23F the protein stability index was 2.6.
For D23G, the protein stability index was 2.23.
For D23T, the protein stability index was 2.55.
In the case of D23A, the protein stability index is reported as 1.96.
D23H showed a protein stability index of 2.38.
Variant D23S has a protein stability index of 2.17.
With D23M the protein stability index was 1.92.
D23V showed a protein stability index of 2.81.
With D23Q the protein stability index was 2.4.
Variant D23C has a protein stability index of 2.43.
Work on D23Y yielded a protein stability index of 1.98.
With L24W the protein stability index was 2.06.
With L24N the protein stability index was 3.25.
L24A showed a protein stability index of 3.33.
L24G gave a protein stability index of 3.07.
With L24D the protein stability index was 3.75.
Work on L24M yielded a protein stability index of 2.98.
L24E showed a protein stability index of 4.01.
With L24Q the protein stability index was 3.5.
L24P gave a protein stability index of 2.85.
With L24T the protein stability index was 3.41.
Variant L24H has a protein stability index of 2.65.
Work on L24R yielded a protein stability index of 2.74.
In the case of L24S, the protein stability index is reported as 3.51.
Variant L24V has a protein stability index of 2.42.
For L24C, the protein stability index was 3.01.
Variant L24Y has a protein stability index of 2.98.
In the case of L24F, the protein stability index is reported as 2.14.
With L24K the protein stability index was 2.87.
For L24I, the protein stability index was 2.44.
Variant H21W has a protein stability index of 2.18.
Variant H21Y has a protein stability index of 2.44.

Variants of: B2
Assay: as above
Conditions: c terminus: a fixed tail appended
Work on Y7K yielded a protein stability index of 2.94.
Variant Y7F has a protein stability index of 3.3.
For Y7P, the protein stability index was 1.84.
Y7E gave a protein stability index of 2.17.
For Y7M, the protein stability index was 2.91.
For Y7H, the protein stability index was 1.68.
With Y7A the protein stability index was 3.49.
Variant Y7V has a protein stability index of 3.44.
For Y7Q, the protein stability index was 1.75.
With Y7T the protein stability index was 1.81.
Y7N gave a protein stability index of 2.14.
For Y7D, the protein stability index was 1.91.
For Y7C, the protein stability index was 2.47.
Variant Y7G has a protein stability index of 1.15.
Y7S gave a protein stability index of 2.84.
In the case of Y7I, the protein stability index is reported as 2.83.
Work on Y7R yielded a protein stability index of 1.14.
Y7L showed a protein stability index of 2.76.
Work on W3P yielded a protein stability index of 1.7.
With W3T the protein stability index was 1.46.
With W3N the protein stability index was 1.31.
In the case of W3S, the protein stability index is reported as 2.1.
For W3Q, the protein stability index was 2.35.
For W3I, the protein stability index was 2.66.
Work on W3E yielded a protein stability index of 1.91.
With W3R the protein stability index was 1.97.
Variant W3G has a protein stability index of 1.77.
W3Y showed a protein stability index of 2.57.
Variant W3H has a protein stability index of 1.02.
W3F gave a protein stability index of 2.59.
With W3V the protein stability index was 2.08.
A17Q showed a protein stability index of 3.33.
In the case of A17N, the protein stability index is reported as 1.22.
A17F showed a protein stability index of 1.58.
Variant A17I has a protein stability index of 3.65.
For A17K, the protein stability index was 2.28.
A17H showed a protein stability index of 2.23.
Work on A17M yielded a protein stability index of 2.92.
A17P showed a protein stability index of 2.37.
A17D gave a protein stability index of 1.78.
Variant A17R has a protein stability index of 1.47.
In the case of A17T, the protein stability index is reported as 2.28.
Work on K19A yielded a protein stability index of 1.74.
Variant K19E has a protein stability index of 3.72.
In the case of K19H, the protein stability index is reported as 3.44.
For K19Y, the protein stability index was 3.14.
For K19P, the protein stability index was 1.28.
Work on K19T yielded a protein stability index of 2.69.
K19N gave a protein stability index of 1.63.
In the case of K19D, the protein stability index is reported as 3.33.
With K19L the protein stability index was 3.29.
In the case of K19M, the protein stability index is reported as 2.06.
K19C gave a protein stability index of 2.41.
With K19F the protein stability index was 1.89.
For K19R, the protein stability index was 2.64.
K19Q showed a protein stability index of 3.01.
For V18I, the protein stability index was 2.62.
For V18E, the protein stability index was 1.49.
In the case of V18K, the protein stability index is reported as 2.72.
Variant V18D has a protein stability index of 2.03.
With V18A the protein stability index was 2.48.
In the case of V18P, the protein stability index is reported as 1.28.
V18C gave a protein stability index of 2.73.
V18L gave a protein stability index of 2.72.
For V18T, the protein stability index was 2.76.
Variant V18Q has a protein stability index of 1.49.
With V18W the protein stability index was 1.77.
Work on V18S yielded a protein stability index of 2.94.
In the case of V18G, the protein stability index is reported as 1.8.
V18R showed a protein stability index of 2.08.
V18Y showed a protein stability index of 2.04.
For V18F, the protein stability index was 2.44.
For V18H, the protein stability index was 1.78.
V18N gave a protein stability index of 2.21.
P11G showed a protein stability index of 2.51.
For P11L, the protein stability index was 2.59.
P11S showed a protein stability index of 4.04.
P11E gave a protein stability index of 2.43.
P11H gave a protein stability index of 3.88.
P11W showed a protein stability index of 4.3.
For P11A, the protein stability index was 2.01.
Variant P11N has a protein stability index of 2.66.
F20G showed a protein stability index of 2.97.
In the case of F20H, the protein stability index is reported as 1.67.
For F20T, the protein stability index was 2.1.
F20A gave a protein stability index of 3.35.
Variant F20N has a protein stability index of 2.25.
F20D gave a protein stability index of 1.97.
Work on F20C yielded a protein stability index of 1.68.
F20I showed a protein stability index of 2.27.
F20P showed a protein stability index of 1.68.
With F20E the protein stability index was 2.68.
Variant F20R has a protein stability index of 3.62.
Work on F20S yielded a protein stability index of 2.3.
In the case of F20Y, the protein stability index is reported as 2.94.
F20K showed a protein stability index of 1.4.
Variant F20W has a protein stability index of 3.8.
With F20Q the protein stability index was 2.38.
V5G showed a protein stability index of 2.31.
V5Y gave a protein stability index of 1.67.
Work on V5E yielded a protein stability index of 2.94.
V5M gave a protein stability index of 3.19.
In the case of V5P, the protein stability index is reported as 1.94.
V5N gave a protein stability index of 1.95.
Work on V5H yielded a protein stability index of 3.13.
In the case of V5Q, the protein stability index is reported as 1.92.
V5W showed a protein stability index of 5.45.
Work on V5D yielded a protein stability index of 1.76.
